From patent US9176064B2, “Bisubstrate fluorescent probes for protein kinase CK2” (University of Tartu, priority 2012, dated 2015)
Where a SMILES comes first, the peptide text is derived from it. [ ]: non-standard residue; d: D form. The star is where a group is joined. X1 = O=C(CCCCCCCn1cnc2c(Br)c(Br)c(Br)c(Br)c21)*

Tests used:
Assay in all cases: Kinase panel residual activity
Type in all cases: biochemical
Details in all cases: compound at 1 micromolar
DYRK3 = target: T1, DYRK3 (Homo sapiens, UniProt O43781)
T1 sequence (O43781 1-588): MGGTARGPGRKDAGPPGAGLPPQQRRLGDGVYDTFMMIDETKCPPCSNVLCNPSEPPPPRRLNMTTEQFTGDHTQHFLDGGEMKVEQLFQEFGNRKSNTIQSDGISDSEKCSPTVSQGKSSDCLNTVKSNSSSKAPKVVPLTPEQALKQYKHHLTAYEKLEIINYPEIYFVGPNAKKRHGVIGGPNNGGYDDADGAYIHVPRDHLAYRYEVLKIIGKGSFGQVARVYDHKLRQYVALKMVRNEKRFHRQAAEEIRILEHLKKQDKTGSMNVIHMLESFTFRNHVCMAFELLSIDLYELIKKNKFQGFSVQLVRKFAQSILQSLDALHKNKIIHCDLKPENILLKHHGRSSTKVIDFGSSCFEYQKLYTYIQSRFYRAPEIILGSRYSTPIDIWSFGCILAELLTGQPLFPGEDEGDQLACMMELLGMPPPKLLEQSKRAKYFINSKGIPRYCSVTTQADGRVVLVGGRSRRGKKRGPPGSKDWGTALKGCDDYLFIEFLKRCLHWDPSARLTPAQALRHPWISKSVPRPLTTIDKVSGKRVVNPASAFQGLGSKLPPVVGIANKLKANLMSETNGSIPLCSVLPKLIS

PAK4 = PAK4 (Homo sapiens, UniProt O96013)
EIF2AK3 = target: T2, EIF2AK3 (Homo sapiens, UniProt Q9NZJ5)
T2 sequence (Q9NZJ5 30-1116): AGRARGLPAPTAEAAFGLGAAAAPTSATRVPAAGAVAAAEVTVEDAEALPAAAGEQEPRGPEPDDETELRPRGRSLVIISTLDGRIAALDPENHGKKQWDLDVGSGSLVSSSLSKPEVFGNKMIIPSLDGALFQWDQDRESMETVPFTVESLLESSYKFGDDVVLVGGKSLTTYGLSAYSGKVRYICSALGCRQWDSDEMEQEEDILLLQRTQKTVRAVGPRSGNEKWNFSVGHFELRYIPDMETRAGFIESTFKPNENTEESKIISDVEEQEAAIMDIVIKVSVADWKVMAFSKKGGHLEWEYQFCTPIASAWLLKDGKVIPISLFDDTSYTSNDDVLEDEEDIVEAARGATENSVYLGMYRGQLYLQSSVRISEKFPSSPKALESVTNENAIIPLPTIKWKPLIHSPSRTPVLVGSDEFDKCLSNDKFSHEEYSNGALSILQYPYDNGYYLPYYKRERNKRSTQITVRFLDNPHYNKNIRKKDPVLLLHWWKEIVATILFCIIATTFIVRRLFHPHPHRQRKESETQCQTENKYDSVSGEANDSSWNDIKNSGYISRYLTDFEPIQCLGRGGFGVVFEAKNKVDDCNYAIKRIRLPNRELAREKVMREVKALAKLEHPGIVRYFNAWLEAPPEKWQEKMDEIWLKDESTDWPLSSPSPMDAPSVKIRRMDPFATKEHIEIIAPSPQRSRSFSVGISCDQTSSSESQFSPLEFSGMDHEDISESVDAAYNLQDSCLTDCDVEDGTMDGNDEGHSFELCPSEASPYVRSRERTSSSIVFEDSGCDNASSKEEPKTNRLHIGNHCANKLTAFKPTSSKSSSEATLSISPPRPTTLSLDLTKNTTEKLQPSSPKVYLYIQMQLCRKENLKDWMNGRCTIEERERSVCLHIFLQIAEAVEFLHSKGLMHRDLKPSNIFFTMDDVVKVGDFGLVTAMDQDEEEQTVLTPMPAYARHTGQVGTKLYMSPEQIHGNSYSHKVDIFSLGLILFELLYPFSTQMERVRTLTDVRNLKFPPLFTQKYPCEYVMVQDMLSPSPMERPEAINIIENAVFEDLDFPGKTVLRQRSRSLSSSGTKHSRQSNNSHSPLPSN

HIPK3 = HIPK3 (Homo sapiens, UniProt Q9H422)
CAMKKb = CAMKKb (Homo sapiens, UniProt Q96RR4)
TTBK2 = TTBK2 (Homo sapiens, UniProt Q6IQ55)
SGK1 = target: T3, SGK1 (Homo sapiens, UniProt O00141)
T3 sequence (O00141 1-431): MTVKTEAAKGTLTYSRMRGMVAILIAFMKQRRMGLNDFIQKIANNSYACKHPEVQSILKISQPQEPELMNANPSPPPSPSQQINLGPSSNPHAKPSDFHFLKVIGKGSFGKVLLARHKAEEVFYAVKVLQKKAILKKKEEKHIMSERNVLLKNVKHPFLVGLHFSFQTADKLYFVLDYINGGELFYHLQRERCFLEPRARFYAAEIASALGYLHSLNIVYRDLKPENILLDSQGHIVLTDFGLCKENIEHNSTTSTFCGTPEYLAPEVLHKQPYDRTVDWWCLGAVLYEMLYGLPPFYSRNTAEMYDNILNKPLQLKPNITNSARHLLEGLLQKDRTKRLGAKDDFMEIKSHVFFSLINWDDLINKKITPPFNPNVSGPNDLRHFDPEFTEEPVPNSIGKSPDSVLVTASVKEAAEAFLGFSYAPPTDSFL

CHK1 = target: T4, CHK1 (Homo sapiens, UniProt O14757)
T4 sequence (O14757 1-476): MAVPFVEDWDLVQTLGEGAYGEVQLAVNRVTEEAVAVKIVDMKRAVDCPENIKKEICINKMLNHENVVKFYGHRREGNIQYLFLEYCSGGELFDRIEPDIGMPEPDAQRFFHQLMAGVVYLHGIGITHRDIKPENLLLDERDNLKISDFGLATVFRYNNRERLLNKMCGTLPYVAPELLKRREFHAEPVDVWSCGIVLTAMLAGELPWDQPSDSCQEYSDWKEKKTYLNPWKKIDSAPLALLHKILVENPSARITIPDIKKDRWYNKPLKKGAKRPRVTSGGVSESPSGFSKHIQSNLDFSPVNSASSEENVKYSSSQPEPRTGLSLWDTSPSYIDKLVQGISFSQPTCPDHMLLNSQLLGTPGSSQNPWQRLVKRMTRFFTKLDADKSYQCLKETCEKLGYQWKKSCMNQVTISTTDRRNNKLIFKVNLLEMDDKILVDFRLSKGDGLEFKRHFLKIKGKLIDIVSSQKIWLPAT

Chain of PAK4 (O96013 whole entry, species assumed): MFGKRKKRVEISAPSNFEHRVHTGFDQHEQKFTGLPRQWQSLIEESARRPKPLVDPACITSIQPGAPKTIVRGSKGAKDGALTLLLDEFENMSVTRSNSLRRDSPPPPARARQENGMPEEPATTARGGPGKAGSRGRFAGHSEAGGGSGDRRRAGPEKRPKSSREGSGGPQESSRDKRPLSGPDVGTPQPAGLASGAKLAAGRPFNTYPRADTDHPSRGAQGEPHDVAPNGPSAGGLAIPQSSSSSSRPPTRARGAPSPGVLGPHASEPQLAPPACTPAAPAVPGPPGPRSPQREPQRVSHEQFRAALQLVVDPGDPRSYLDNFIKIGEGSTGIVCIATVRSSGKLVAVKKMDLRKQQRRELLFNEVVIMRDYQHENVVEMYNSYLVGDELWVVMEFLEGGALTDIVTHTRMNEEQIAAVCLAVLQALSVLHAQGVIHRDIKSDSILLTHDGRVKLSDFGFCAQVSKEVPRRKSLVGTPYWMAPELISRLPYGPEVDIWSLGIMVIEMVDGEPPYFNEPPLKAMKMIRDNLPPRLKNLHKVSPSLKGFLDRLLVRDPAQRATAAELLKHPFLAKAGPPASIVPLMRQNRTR
Chain of HIPK3 (Q9H422 whole entry, species assumed): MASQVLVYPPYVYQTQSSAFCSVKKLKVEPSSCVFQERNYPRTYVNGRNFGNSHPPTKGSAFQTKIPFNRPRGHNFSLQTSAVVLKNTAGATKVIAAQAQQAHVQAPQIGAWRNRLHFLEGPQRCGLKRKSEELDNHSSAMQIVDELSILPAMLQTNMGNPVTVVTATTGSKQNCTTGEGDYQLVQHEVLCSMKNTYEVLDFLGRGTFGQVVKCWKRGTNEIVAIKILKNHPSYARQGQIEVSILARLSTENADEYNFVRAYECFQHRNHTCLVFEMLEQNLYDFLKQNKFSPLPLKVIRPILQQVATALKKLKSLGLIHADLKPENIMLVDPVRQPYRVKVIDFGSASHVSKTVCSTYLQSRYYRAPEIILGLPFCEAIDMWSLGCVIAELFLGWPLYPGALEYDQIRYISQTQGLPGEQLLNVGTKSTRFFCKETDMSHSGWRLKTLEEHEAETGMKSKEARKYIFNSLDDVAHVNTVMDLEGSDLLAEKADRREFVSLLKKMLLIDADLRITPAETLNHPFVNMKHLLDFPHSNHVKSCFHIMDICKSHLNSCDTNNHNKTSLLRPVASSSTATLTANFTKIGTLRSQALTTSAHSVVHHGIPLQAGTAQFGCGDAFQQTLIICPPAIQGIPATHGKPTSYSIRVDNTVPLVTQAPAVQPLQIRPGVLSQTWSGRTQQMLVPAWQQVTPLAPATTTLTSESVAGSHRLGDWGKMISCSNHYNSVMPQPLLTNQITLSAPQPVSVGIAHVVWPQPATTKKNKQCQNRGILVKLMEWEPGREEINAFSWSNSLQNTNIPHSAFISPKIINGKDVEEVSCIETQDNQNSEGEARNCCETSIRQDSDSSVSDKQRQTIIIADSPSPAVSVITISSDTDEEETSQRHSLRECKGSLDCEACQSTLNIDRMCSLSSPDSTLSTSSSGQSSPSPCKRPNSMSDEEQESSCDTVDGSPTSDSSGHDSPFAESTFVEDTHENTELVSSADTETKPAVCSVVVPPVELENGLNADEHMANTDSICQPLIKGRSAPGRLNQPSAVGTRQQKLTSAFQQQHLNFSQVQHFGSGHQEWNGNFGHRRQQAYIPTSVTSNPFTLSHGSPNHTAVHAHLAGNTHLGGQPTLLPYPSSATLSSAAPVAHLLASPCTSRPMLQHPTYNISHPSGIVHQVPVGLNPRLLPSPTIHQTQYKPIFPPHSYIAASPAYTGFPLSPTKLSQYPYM
Chain of TTBK2 (Q6IQ55 whole entry, species assumed): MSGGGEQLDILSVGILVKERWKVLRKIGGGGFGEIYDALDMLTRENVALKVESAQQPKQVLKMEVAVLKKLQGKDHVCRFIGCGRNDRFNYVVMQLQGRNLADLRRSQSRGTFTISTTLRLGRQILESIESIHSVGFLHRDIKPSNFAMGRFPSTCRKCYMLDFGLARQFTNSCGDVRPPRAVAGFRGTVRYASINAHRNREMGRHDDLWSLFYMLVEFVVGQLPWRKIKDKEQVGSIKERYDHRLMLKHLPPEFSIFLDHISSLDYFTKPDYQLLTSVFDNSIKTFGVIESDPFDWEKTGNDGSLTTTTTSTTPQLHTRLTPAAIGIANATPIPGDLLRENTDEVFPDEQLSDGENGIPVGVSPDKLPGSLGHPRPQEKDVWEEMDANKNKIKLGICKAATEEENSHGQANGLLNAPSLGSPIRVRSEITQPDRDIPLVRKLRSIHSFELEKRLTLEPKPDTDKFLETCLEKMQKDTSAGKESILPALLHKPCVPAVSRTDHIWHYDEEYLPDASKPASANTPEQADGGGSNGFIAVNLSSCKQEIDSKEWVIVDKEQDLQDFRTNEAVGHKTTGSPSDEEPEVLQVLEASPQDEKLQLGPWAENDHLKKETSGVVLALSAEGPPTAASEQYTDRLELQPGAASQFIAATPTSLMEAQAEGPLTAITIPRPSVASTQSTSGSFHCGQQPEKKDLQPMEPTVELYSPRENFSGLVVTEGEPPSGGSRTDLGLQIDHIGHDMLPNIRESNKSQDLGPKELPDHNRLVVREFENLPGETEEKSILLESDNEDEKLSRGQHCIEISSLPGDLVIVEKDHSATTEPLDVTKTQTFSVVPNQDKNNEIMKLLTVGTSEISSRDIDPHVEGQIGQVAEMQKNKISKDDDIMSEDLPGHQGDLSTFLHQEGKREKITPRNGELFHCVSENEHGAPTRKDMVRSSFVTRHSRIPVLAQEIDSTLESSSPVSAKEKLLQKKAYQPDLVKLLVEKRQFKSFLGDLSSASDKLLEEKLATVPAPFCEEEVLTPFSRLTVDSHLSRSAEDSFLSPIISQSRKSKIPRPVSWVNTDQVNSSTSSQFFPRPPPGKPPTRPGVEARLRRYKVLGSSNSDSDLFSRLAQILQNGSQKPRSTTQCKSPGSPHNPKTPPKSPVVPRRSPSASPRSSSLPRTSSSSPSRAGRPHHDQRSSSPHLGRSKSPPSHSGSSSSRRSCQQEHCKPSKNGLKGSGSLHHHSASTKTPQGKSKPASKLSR
Chain of CAMKKb (Q96RR4 whole entry, species assumed): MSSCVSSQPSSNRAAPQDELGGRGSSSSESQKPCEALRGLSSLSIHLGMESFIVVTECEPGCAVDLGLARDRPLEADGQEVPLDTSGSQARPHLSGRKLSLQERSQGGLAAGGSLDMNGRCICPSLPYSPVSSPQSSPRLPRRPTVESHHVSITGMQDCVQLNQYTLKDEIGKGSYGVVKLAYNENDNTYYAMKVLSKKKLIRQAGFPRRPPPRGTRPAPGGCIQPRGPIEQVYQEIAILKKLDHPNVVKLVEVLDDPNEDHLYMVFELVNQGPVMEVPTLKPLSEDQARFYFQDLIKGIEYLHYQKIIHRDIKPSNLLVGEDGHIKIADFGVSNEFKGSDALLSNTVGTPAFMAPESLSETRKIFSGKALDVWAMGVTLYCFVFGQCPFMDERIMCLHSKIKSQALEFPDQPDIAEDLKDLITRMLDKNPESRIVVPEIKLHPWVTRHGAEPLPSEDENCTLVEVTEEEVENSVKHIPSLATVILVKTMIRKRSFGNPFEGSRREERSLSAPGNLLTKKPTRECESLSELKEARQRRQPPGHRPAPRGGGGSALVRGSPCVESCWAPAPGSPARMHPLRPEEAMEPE

## NCCCC[C@H](NC(=O)[C@H](CC(=O)O)NC(=O)[C@H](CC(=O)O)NC(=O)[C@H](CC(=O)O)NC(=O)[C@H](CC(=O)O)NC(=O)[C@H](CC(=O)O)NC(=O)[C@@H](CC(=O)O)NC(=O)CCCCCCCn1cnc2c(Br)c(Br)c(Br)c(Br)c21)C(=O)O [TBBI-OcA-(D-Asp)-(L-Asp)5-(L-Lys)-OH] (X1-[dD]DDDDDK-OH)
DYRK3
  remaining activity at 1 µM: 30%
PAK4
  remaining activity at 1 µM: 71%
EIF2AK3
  remaining activity at 1 µM: 71%
HIPK3
  remaining activity at 1 µM: 75%
CAMKKb
  remaining activity at 1 µM: 91%
TTBK2
  remaining activity at 1 µM: 95%
SGK1
  remaining activity at 1 µM: 127%
CHK1
  remaining activity at 1 µM: 134%
